Substrate in the data set: O=[N+]([O-])c1ccc(OP(=O)(O)O)cc1
Description: purified protein. As to conditions: 2 mM Mn2+, 50 mM Tris-HCl pH 8.0, 37 °C.

B1: StpA (Enterococcus faecium DO) (protein)
chain: MQIEYQSDVGRRRNTNQDYASVFTSRSGLKLAVLADGMGGHRAGDIASQMAVTNLGEAWEKQEAVDDEKIAQWFIQSIQEENMLIYQRGQEQPEYNGMGTTIVAAALSDDWFTIANVGDSRAYLIREDKIMQLTEDHSLVNELVKSGEISEEMAVNHPRKNILTRSVGMPGTVEVDVSTHLWQLKDRLLLCSDGLTNMLSEEEIGTIINQEGPLSHKVTELIDRANEAGGADNITVLLIEYKEDSV
For B1, the Km amounted to 660 ± 90 µM, the kcat is 1,200 ± 100 min^-1 and the kcat/Km was determined as 30000 ± 4830 M⁻¹ s⁻¹.

Broadly, the Km is the concentration of substrate that gives half-maximal velocity. As usually defined, the kcat/Km is the turnover number divided by the Michaelis constant.

(Values after publication PMC4161250.)
